In patent US20200299389A1:
pEC50: −log10 of the molar value.

How the values were obtained:
[1] = biological target: VEGF165 (UniProt P15692); test: cell-based or functional assay
[2] = biological target: VEGF165 (UniProt P15692); test: ELISA; conditions: Fc fusion

Sequence of VEGF165 (P15692 other isoform, or with tags, fused parts or gaps): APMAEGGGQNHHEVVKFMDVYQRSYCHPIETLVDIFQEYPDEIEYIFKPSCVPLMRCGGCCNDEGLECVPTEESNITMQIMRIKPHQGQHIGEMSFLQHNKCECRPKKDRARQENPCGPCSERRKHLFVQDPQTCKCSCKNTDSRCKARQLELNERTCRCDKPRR

inhibition of VEGF165-stimulated HUVEC proliferation (IC50) [1] | pEC50 [2] | Substance
0.107 nM |  | VEGFR-Fc (aflibercept) (from UniProt P17948 129-230; P35968 225-327) (Fc fusion)
 | 10.24 | VEGFR-Fc (aflibercept) (from UniProt P17948 129-230; P35968 225-327)
